Data reported in patent US20170056486A1 (IMMATICS BIOTECHNOLOGIES, published 2017).

target: T1, HLA-A*02 (human); assay: UV-exchange ELISA (anti-b2m); yield 20%-49%
T1 construct: Peptide-receptive MHC monomer made by UV cleavage of a UV-sensitive ligand and captured on streptavidin plates; also called HLA-A*02 MHC class I molecule; peptide-receptive MHC
Source text: (§1) Candidate peptides for T cell based therapies according to the present invention were further tested for their MHC binding capacity (affinity). The individual peptide-MHC complexes were produced by UV-ligand exchange, where a UV-sensitive peptide is cleaved upon UV-irradiation, and exchanged with the peptide of interest as analyzed. Only peptide candidates that can effectively bind and stabilize the peptide-receptive MHC molecules prevent dissociation of the MHC complexes. To determine the yield of the exchange reaction, an ELISA was performed based on the detection of the light chain (β2m) of stabilized MHC complexes. The assay was performed as generally described in Rodenko et al. (Rodenko et al., 2006).
(§2) 96 well MAXISorp plates (NUNC) were coated over night with 2 ug/ml streptavidin in PBS at room temperature, washed 4× and blocked for 1 h at 37° C. in 2% BSA containing blocking buffer. […] Peptide-MHC monomers of the UV-exchange reaction were diluted 100 fold in blocking buffer. Samples were incubated for 1 h at 37° C., washed four times, incubated with 2 ug/ml HRP conjugated anti-β2m for 1 h at 37° C., washed again and detected with TMB solution that is stopped with […]. Absorption was measured at 450 nm.

Binder	peptide exchange yield [%]
VLFLGKLLV	20 to 49
HLYNNEEQV	20 to 49
GLLWQIIKV	20 to 49
YVLPKLYVKL	20 to 49
RLLPKVQEV (also called ZNF-003)	20 to 49
IASAIVNEL	20 to 49
LLYDGKLSSA	20 to 49
VLLRVLIL	20 to 49
VLGPGPPPL	20 to 49
EYALLYHTL	20 to 49
VLISSTVRL	20 to 49
SVAKTILKR	20 to 49
HLPDFVKQL	20 to 49
KILDLTRVL	20 to 49
GVIETVTSL	20 to 49
FAWEPSFRDQV	20 to 49
LLDHLSFINKI	20 to 49
ALDDSLTSL	20 to 49
ILDETLENV	20 to 49
TLDHKPVTV	20 to 49
SVDSAPAAV	20 to 49
IQADDFRTL	20 to 49
LLRGPPVARA	20 to 49
GLIYEETRGV	20 to 49
GLMDGSPHFL	20 to 49
FLIDTSASM	20 to 49
VLLAAGPSAA	20 to 49
GLSSSSYEL	20 to 49

target: T1, HLA-A*02; assay: UV-exchange ELISA (anti-b2m); yield >=75%
Source text: as §1, §2

Binder	peptide exchange yield [%]
MLSDLTLQL	≥ 75
SLYHRVLLY	≥ 75
